The source of these data is the supplement of paper PMC12042874.

± gives the uncertainty stated by the source.

This series can be described thus: amyloid nucleation score (Sup35N fusion, yeast selection) (log enrichment); library NNK1; higher = more nucleation; inactive = no reads after selection. An outline of the steps: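 Peptides of 20 random codons fused to Sup35N were expressed in psi-negative yeast, induced 24 hours with 100 μM copper sulfate, then grown 7 days at 30°C on medium lacking adenine and uracil. Input and output plasmid inserts were Illumina-sequenced. Nucleation score is the DiMSum log enrichment of output over input reads, centred on the mode score of non-aggregating sequences, excluding sequences with under 100 input reads. Random libraries had three technical output replicates.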
In turn, AGVCRNNSPLIHTFNF registered an amyloid nucleation score of 0.728 ± 0.64.

As for AHLAVPSQLNECFIVSLWV, the amyloid nucleation score was found to be 0.328 ± 0.76. For AHSANSKIVSFRMLDDYRPD the value was 1.1 ± 0.39; for AHSCDGPCRPHVTAVKALVL, 0.089 ± 0.48; for AIAIPDRCLFYATRFSCDSR, “inactive”. As to AICRLDVVWVT, the amyloid nucleation score stood at 0.135 ± 0.37. In the case of AICWPVILSTDLTQTYLAWT, the amyloid nucleation score is -0.247 ± 0.3. Then AIHMEHCCFVNVQRILRFVV, with 4.68 ± 0.092. With AILNRLLSLPSFPVPSSDSQ, the amyloid nucleation score is 0.466 ± 1.4.

On to AIPLSDRR, for which the amyloid nucleation score was found to be 1.48 ± 0.88. The substance AIQCSTARNDVECKLFTYVL yielded an amyloid nucleation score of 0.086 ± 0.71. For the substance AIQYHNWGSEACLWHERESG, the amyloid nucleation score was 0.225 ± 0.26.

As to AIRWYGMDDMPTRGYQWSPA, the amyloid nucleation score was -0.128 ± 0.59. Then AISVGVFRVWC, with 3.53 ± 0.09.

With AIVTSGNRE, the amyloid nucleation score was -0.015 ± 0.51. Then AKGYSYCKLI, with -0.804 ± 0.3; and AKVCLKSVTQFTTHLLMSRG, with -0.009 ± 0.77; and AKVYSGIPWWNFSTFLRGEV, with -0.668 ± 1.4.

AKWPARSPSLQLGNFWFDTT gave an amyloid nucleation score of 0.161 ± 0.59. As for ALAVVVLFLCVSTPAYVAFE, the amyloid nucleation score turned out to be 0.923 ± 0.53. With ALCLSRARSSG, the amyloid nucleation score was -0.152 ± 0.68. For ALKQPVYDGRGPRLGIGPRR the value was -0.124 ± 1. As for ALKWSTLLTLFLGYSHIVSM, the amyloid nucleation score came out at 1.46 ± 0.38. Then ALLIPINTLGDN, with 0.605 ± 0.7; and ALMNGQMVTGALITEWYNWC, with 0.439 ± 0.97. In turn, ALPIMKLMACVCGQKGMTYA returned an amyloid nucleation score of -0.047 ± 0.69.

ALPYVYRTLVNNLLIPSSGL returned an amyloid nucleation score of 1.02 ± 0.67. For ALSSWLLFGSTCQDSDCFKD the value was 1.16 ± 0.76. In turn, ALTRS returned an amyloid nucleation score of -0.074 ± 0.49. For AMFAMLNDRGRLGACYLVGK the value was 1.55 ± 0.78.

AMNFWRKILIFSELVYG: the amyloid nucleation score came out at 2.19 ± 0.5. For AMQGACGFISGGFSVARVFV the value was 0.296 ± 0.25. ANDKHLVLGWAQVVTQMDGR came in with an amyloid nucleation score of 0.731 ± 0.86. ANELFTVDKKSVGYIPTHTL had an amyloid nucleation score of 0.445 ± 0.56. For the substance ANIYGWDDPYFEQL, the amyloid nucleation score came out at 0.045 ± 0.75. For ANMYY the value was -0.279 ± 1.1. For ANSSF the value was -0.126 ± 0.54. As to ANSSLLEFHTYDWDLYSACL, the amyloid nucleation score is -1.06 ± 1.5.

Consider ANVNSWTRPAIMIVLDWGVP, for which the amyloid nucleation score is 0.868 ± 0.58.

Turning to APCRVMIYINMSMDYWTMES, the amyloid nucleation score was 5.19 ± 0.072. Regarding APKITGQTSNVGTRA, the amyloid nucleation score is -0.028 ± 0.52. In the case of APPLSFEFL, the amyloid nucleation score amounted to 3.06 ± 0.092. As for APVSIKCRFL, the amyloid nucleation score was 0.357 ± 0.55. In turn, AQFSTKPQQRIP registered an amyloid nucleation score of 1.51 ± 0.56. For AQLGDDYVRCHSTILSTRRL the value was 0.167 ± 0.62; for AQLWRARREFSFMTPMPSVS, -0.624 ± 1.5. For AQLYVNWFCVWSFKE the value was 6.2 ± 0.08; for AQQLGMMGVGFMQRWNCRF, -1.74 ± 2.4; for ARFRYVESSRQMSMNVVCLT, 0.194 ± 0.38. For the substance ARGCD, the amyloid nucleation score was -0.247 ± 1.1. For ARIEFSGWFHPQLDLVFFVQ the value was 1.97 ± 0.15; for ARLDRSFR, 0.451 ± 0.55.

For ARNIVSFDGTFYSFKQTYTP, the amyloid nucleation score turned out to be 2.12 ± 0.19. The substance ARVSRSFVSRAANIHGNCRR showed an amyloid nucleation score of -0.029 ± 1.1.

Turning to ARYSRRRKVMSLLVTGEMDA, the amyloid nucleation score was -0.038 ± 0.44. For the substance ASCVGNINDCRPNIAFWVEE, the amyloid nucleation score came to 0.984 ± 0.84. For ASGVWRQ the value was -0.47 ± 0.65.

ASHFELYRLRKGLMCSVVSI: the amyloid nucleation score entry is “inactive”. For ASIKTRTSFRVKVWYWVRNL the value was -0.598 ± 1.7; for ASLLMLLVGRKICLAQVNKG, 0.412 ± 0.51; for ASLLSGQK, 0.358 ± 1.1. Then ASRSSIPSG, with -0.038 ± 1. ASSVHPRYFLNMTSSGVRKS: the amyloid nucleation score entry was “inactive”. Then ASWFLVISTSLVYHSATADR, with 0.211 ± 0.39. Then ATRVPPFMEVLSPYH, with “inactive”. AVCIMFRVNRFIRIVNTGGC registered an amyloid nucleation score of 0.042 ± 0.58. For AVCVEGQLANSGHRGTGNGN the value was 0.257 ± 0.48. AVELI: the amyloid nucleation score is -0.436 ± 0.34. For AVEVLGPCRNLRVWSNLDLG the value was -0.072 ± 0.74; for AVLWTHQYFYYYIGLAF, -0.267 ± 0.68. AVLYLSQFGLNRKRGYTA yielded an amyloid nucleation score of 0.582 ± 0.56. For the substance AVMPHCSCTRNQRFRLVSMH, the amyloid nucleation score was 0.707 ± 0.85. For AVSLRWCTGINGADKSCAYQ the value was 1.19 ± 0.43; for AVVMTLIVYALGYT, 1.27 ± 0.3.

As to AVYDLCD, the amyloid nucleation score was 0.816 ± 0.74.

Substance AWAKFCCSD registered an amyloid nucleation score of -0.012 ± 1.1. AWDVLMHM had an amyloid nucleation score of 0.248 ± 0.49. For AWFSISTRRIAIAWVILPCN the value was -0.398 ± 0.4; for AWIRGQTVSCLYYAEGLELG, -0.448 ± 0.71; for AWRDTDVASSVICG, 0.932 ± 0.97.

Consider AWYWAMAIMRVSIKVWPLLL, for which the amyloid nucleation score is -0.713 ± 0.7. Then AYFIYVMYG, with -1.11 ± 1.1; and AYGLNARIHTATGECLLGYA, with -0.143 ± 0.24; and AYINLTPHGPRVCRFNWLAS, with -0.094 ± 0.7. As to AYINSSDSRSDMSRNWY, the amyloid nucleation score came to 0.47 ± 1.1.

In turn, AYKDGVTTLDLGCTGCFCYA gave an amyloid nucleation score of 4.7 ± 0.072. Take AYMWLGAINICLWYWSLGR: the amyloid nucleation score came out at 3.02 ± 0.21. Consider AYSLLMDYGFNHLFIRRFSR, for which the amyloid nucleation score is -0.067 ± 0.42. The substance AYTCDV came in with an amyloid nucleation score of 0.03 ± 0.29. For AYVASFTSIRCRAHHAPLSK the value was -0.366 ± 0.3. On to CAACSSQLYCEWFMNALLGM, for which the amyloid nucleation score is -0.513 ± 0.44.

Turning to CAIFFTASLCVCRLSAACEQ, the amyloid nucleation score was determined as 1.75 ± 0.43.

Consider CAVLLGSIVHMLFAYE, for which the amyloid nucleation score worked out at 0.132 ± 0.61.

On to CAVQQYRNRRGNM, for which the amyloid nucleation score was 0.152 ± 0.65. Then CCAISMFFELHNLHVTVMGS, with 5.54 ± 0.057.

Substance CCLIHS gave an amyloid nucleation score of 1.38 ± 0.5. For CCLLDWSLDNGYNRQLRKET the value was 0.219 ± 0.32; for CCLTWAPTRDPFCLVTGVCR, 0.193 ± 1.1.

As for CCQYSWSNVMSVRKLSAWLH, the amyloid nucleation score was 0.04 ± 0.34. Then CCVNDFPTISPLSPLKRFDR, with -0.302 ± 0.54; and CDRFWMELG, with -0.267 ± 0.4; and CDSFVSFMPNFNFFR, with 5.03 ± 0.056. CDSYELSQTAQRNNSTLRQS came in with an amyloid nucleation score of -0.359 ± 1.9. The substance CDVLELFKNTVGSFGGIVVS yielded an amyloid nucleation score of 0.204 ± 0.79.
